Literature values, collected in PMC2879464.
Read-outs that look alike come from different tables or passages of the source.

Legend:
[1] = target: cortactin (Homo sapiens) (UniProt Q14247)
[2] = target: cortactin (Homo sapiens) (UniProt Q14247); remark: listed apart in the source

UniProt Q14247, sequence (Q14247 whole entry): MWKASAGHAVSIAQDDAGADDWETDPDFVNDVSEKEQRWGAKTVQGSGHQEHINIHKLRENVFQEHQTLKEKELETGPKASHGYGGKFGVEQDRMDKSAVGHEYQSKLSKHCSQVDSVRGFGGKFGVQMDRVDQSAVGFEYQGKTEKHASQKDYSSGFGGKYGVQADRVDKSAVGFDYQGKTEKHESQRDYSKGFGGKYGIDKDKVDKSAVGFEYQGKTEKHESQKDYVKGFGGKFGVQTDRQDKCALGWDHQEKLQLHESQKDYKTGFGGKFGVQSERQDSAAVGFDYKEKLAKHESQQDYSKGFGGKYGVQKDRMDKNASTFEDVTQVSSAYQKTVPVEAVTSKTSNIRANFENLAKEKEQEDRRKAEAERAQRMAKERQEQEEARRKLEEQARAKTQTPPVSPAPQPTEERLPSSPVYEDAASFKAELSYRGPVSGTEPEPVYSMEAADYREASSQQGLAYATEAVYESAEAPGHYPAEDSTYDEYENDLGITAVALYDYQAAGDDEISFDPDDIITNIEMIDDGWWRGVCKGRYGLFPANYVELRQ

| Kd [1] [µM] | Kd [2] [µM] | Substance |
| --- | --- | --- |
| 0.25 |  | nmMLCK2 (from UniProt Q15746) |
|  | 1 | nmMLCK1 (from UniProt Q15746) |
